# Measured values from publication PMC6056229, “Cryo-EM structure of the polycystin 2-l1 ion channel” (eLife, 2018).
# B1: human polycystic kidney disease 2-like 1 (polycystin 2-l1) ion channel (natural protein, UniProt Q9P0L9 1-805, looked up)
# chain: MNAVGSPEGQELQKLGSGAWDNPAYSGPPSPHGTLRVCTISSTGPLQPQPKKPEDEPQETAYRTQVSSCCLHICQGIRGLWGTTLTENTAENRELYIKTTLRELLVYIVFLVDICLLTYGMTSSSAYYYTKVMSELFLHTPSDTGVSFQAISSMADFWDFAQGPLLDSLYWTKWYNNQSLGHGSHSFIYYENMLLGVPRLRQLKVRNDSCVVHEDFREDILSCYDVYSPDKEEQLPFGPFNGTAWTYHSQDELGGFSHWGRLTSYSGGGYYLDLPGSRQGSAEALRALQEGLWLDRGTRVVFIDFSVYNANINLFCVLRLVVEFPATGGAIPSWQIRTVKLIRYVSNWDFFIVGCEVIFCVFIFYYVVEEILELHIHRLRYLSSIWNILDLVVILLSIVAVGFHIFRTLEVNRLMGKLLQQPNTYADFEFLAFWQTQYNNMNAVNLFFAWIKIFKYISFNKTMTQLSSTLARCAKDILGFAVMFFIVFFAYAQLGYLLFGTQVENFSTFIKCIFTQFRIILGDFDYNAIDNANRILGPAYFVTYVFFVFFVLLNMFLAIINDTYSEVKEELAGQKDELQLSDLLKQGYNKTLLRLRLRKERVSDVQKVLQGGEQEIQFEDFTNTLRELGHAEHEITELTATFTKFDRDGNRILDEKEQEKMRQDLEEERVALNTEIEKLGRSIVSSPQGKSGPEAARAGGWVSGEEFYMLTRRVLQLETVLEGVVSQIDAVGSKLKMLERKGWLAPSPGVKEQAIWKHPQPAPAVTPDPWGVQGGQESEVPYKREEEALEERRLSRGEIPTLQRS
# modifications: glycan at N207; disulfide bond C210-C223
# notes: polycystin 2-l1 (PKD2L1), human, full length; synthetic gene, not codon optimized; UniProt Q9P0L9; No cleavage of the MBP tag is described; fractions were found by western blot against MBP during the preparation for cryo-EM; The N terminus, the S4-S5 linker and the C terminus are not resolved in the map; also called PKD2L1; PC-2L1
# Molecular target: the molecule itself
# Experiment: cryo-EM structure; single particle cryo-EM of purified full-length polycystin 2-l1 in amphipol PMAL-C8, HKN buffer (HEPES 50, KCl 150, NaCl 50, CaCl2 5 mM; pH 7.5), C4 symmetry imposed, 3.3 Å
protein,measurement,value
B1,stoichiometry N,4
